Reference: patent US20240141059A1 (Bristol-Myers Squibb, published 2024)
Changes are numbered by the printed parent chain. Names may count otherwise. “And” between values parts separate entries of the source, which are not always exact repeats. Equal entries are not always repeated.

T1: N-hCD73-his (human, UniProt P21589 26-336, limits assumed)
T1 construct: monomeric in solution by SEC-MALS; also called N-terminal domain of hCD73
T1 sequence (looked up): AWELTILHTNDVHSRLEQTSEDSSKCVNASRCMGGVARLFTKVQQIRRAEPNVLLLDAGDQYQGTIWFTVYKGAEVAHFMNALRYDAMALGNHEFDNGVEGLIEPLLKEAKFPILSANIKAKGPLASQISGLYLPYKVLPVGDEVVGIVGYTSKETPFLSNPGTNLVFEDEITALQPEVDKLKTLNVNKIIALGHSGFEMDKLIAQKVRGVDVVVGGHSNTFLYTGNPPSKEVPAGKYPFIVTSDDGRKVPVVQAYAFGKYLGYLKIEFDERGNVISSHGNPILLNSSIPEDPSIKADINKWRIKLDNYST

T2: hCD73-his (human, UniProt P21589 26-546)
T2 construct: range 26-546; also called full length extracellular domain of human-CD73
T2 sequence (looked up): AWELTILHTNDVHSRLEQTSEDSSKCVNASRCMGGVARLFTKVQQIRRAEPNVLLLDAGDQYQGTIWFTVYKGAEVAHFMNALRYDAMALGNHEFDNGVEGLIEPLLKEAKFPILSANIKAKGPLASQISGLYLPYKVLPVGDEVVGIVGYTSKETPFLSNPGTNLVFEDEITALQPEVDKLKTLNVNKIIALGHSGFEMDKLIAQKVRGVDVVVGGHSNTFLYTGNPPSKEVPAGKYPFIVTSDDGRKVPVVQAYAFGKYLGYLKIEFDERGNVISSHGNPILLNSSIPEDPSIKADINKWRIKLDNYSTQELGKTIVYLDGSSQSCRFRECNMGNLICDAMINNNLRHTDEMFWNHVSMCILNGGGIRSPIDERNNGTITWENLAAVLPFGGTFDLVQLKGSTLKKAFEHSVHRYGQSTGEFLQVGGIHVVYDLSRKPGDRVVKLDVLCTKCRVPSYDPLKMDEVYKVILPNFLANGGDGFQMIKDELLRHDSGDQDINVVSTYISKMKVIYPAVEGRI

T3: human CD73 on cells (human, UniProt P21589 27-549)
T3 sequence (looked up): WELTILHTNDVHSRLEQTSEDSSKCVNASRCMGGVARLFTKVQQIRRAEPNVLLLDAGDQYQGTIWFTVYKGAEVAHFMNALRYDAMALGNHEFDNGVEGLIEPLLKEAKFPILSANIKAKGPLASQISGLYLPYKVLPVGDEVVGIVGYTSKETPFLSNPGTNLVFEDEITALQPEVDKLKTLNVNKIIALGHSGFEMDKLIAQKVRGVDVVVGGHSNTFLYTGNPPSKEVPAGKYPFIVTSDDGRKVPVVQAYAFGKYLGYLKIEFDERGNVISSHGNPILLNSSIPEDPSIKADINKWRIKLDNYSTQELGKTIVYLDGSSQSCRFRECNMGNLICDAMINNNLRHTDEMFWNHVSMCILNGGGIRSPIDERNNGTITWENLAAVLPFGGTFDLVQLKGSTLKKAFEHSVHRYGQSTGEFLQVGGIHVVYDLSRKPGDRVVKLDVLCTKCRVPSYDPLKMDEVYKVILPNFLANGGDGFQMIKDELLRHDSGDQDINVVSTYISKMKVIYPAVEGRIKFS

B1: CD73.10-IgG2-C219S (antibody)
heavy: QVQLVESGGGVVQPGRSLRLSCAASGFTFSNYGMHWVRQAPGKGLEWVAVIWYDESNKYYPDSVKGRFTISRDNSKNTLYLQMNSLRAEDTAVYYCARGGSSWYPDSFDIWGQGTMVTVSSASTKGPSVFPLAPCSRSTSESTAALGCLVKDYFPEPVTVSWNSGALTSGVHTFPAVLQSSGLYSLSSVVTVPSSNFGTQTYTCNVDHKPSNTKVDKTVERKSCVECPPCPAPPVAGPSVFLFPPKPKDTLMISRTPEVTCVVVDVSHEDPEVQFNWYVDGVEVHNAKTKPREEQFNSTFRVVSVLTVVHQDWLNGKEYKCKVSNKGLPAPIEKTISKTKGQPREPQVYTLPPSREEMTKNQVSLTCLVKGFYPSDIAVEWESNGQPENNYKTTPPMLDSDGSFFLYSKLTVDKSRWQQGNVFSCSVMHEALHNHYTQKSLSLSPG
light: not shown
notes: also called CD73.10-IgG2CS; CD73.10-Vh-hHC-IgG2-C219S
B2: CD73.10-IgG2-C219S-IgG1.1 (antibody)
heavy: B1 heavy with Q274K, F296Y, F300Y, V309L, G327A, A330S, P331S, T339A
light: not shown
notes: also called CD73.10-IgG2CS-IgG1.1f; CD73.10-Vh-hHC-IgG2-C219S-IgG1.1f
B3: CD73.3-IgG1.1 (antibody, V domains shown)
VH: EVQLVESGGGLVQPGRSLRLSCAASGFTFDDYAMHWVRQAPGKGLEWVSGISWKSGSIGYADSVKGRFTISRDNAKNSLYLQMNSLRAEDTVLYYCVKGYYVILTGLDYWGQGTLVTVSS
VL: not shown
notes: also called CD73.3-IgG1.1f; 3-Vh-hHC-IgG1.1f/4C3Vk1
B4: 3h56-269-IgG1.3f (Fc fusion)
chain: EVQLLESGGGLVQPGGSLRLSCAASGFTFRDYEMWWVRQAPGKGLERVSAINPQGTRTYYADSVKGRFTISRDNSKNTLYLQMNSLRAEDTAVYYCAKLPFRFSDRGQGTLVTVSSASTEPKSCDKTHTCPPCPAPEAEGAPSVFLFPPKPKDTLMISRTPEVTCVVVDVSHEDPEVKFNWYVDGVEVHNAKTKPREEQYNSTYRVVSVLTVLHQDWLNGKEYKCKVSNKALPAPIEKTISKAKGQPREPQVYTLPPSREEMTKNQVSLTCLVKGFYPSDIAVEWESNGQPENNYKTTPPVLDSDGSFFLYSKLTVDKSRWQQGNVFSCSVMHEALHNHYTQKSLSLSPGK
notes: dAb-Fc fusion protein
B5: 3h56-269-IgG1.1f (Fc fusion)
chain: B4 chain with A234S, P235S
notes: dAb-Fc fusion protein

What was measured:
[1] = biological target: T1, N-hCD73-his; test: DLS, target:mAb 2:1, 8 uM + 4 uM; unit from the text
Protocol: (§1) The structure and oligomeric state of CD73/antibody complexes in solution were examined by SEC-MALS and DLS.
(§2) Dynamic light scattering (DLS) studies were performed on a Wyatt DynaPro® plate reader in 384 well plates at 25° C. Experimental parameters were 20 acquisitions of 5 s each per measurement, and measurements were recorded in quadruplicate, with the average and standard deviation reported. Intensity autocorrelation functions were fitted using the “Regularization” algorithm in the Dynamics® software (Wyatt Technologies®).

[2] = biological target: T1, N-hCD73-his; test: SPR, mAb captured on protein A
Protocol: The affinity of the antibodies for human CD73 was measured to determine whether the change of the constant region affects them. The affinities were determined by Surface Plasmon Resonance (SPR) as follows. […] For these experiments, protein A (Pierce) was immobilized to a density of 3000-4000 RU on flow cells 1˜4 of a CMS sensor chip (GE Healthcare) using standard ethyl(dimethylaminopropyl) carbodiimide (EDC)/N-hydroxysuccinimide (NHS) chemistry, with ethanolamine blocking, in a running buffer of 0.01 M HEPES pH 7.4, 0.15 M NaCl, 3 mM EDTA, 0.005% v/v tween 20. […] The running buffer for the kinetic experiments was 10 mM sodium phosphate, 130 mM sodium chloride, 0.05% tween 20, pH 7.1. The surfaces were regenerated after each cycle using two 30 s pulses of 10 mM glycine pH 1.5 at a flow rate of 30 μl/min. Sensogram data was double-referenced and then fitted to a 1:1 Langmuir model using Biacore® T100 evaluation software v2.0.4, to determine the association rate constant (ka), the dissociation rate constant (kd), and the equilibrium dissociation constant (KD).

[3] = biological target: T2, hCD73-his; test: SEC-MALS, target:mAb 1:1, 2.5 uM + 2.5 uM
Protocol: as §1
(§3) The oligomeric state of CD73/antibody complexes were examined by size-exclusion chromatography coupled to an in-line multi-angle light scattering detector (SEC-MALS). Isocratic separations were performed on a Shodex PROTEIN KW-803 column connected to an Prominence Shimadzu UFLC in buffer containing 200 mM K₂HPO₄, 150 mM NaCl, pH 6.8, containing 0.02% Na azide (0.1 μm filtered) running at 0.5 mL/min. Samples were injected onto the column using a SIL-20AC Prominence Shimadzu® autosampler, and data were obtained from three online detectors connected in series: a Prominence SPD-20AD diode array UV/vis spectrophotometer followed by a Wyatt miniDAWN™ TREOS Multi-Angle Light Scattering Detector then a Wyatt Optilab T-rEX Refractive Index Detector® instrument. Data were collected and analyzed using Astra® (Wyatt) and Labsolutions® (Shimadzu) software.

[4] = biological target: T1, N-hCD73-his; test: SEC-MALS, target:mAb 2:1, 8 uM + 4 uM
Protocol: as §1, §3

[5] = biological target: T2, hCD73-his; test: DLS, target:mAb 1:1, 4 uM + 4 uM; unit from the text
Protocol: as §1, §2

[6] = biological target: T2, hCD73-his; test: DLS, target:mAb 1:1, 2.5 uM + 2.5 uM; unit from the text
Protocol: as §1, §2

[7] = biological target: T3, human CD73 on cells; test: cell-based or functional assay
[8] = biological target: T3, human CD73 on cells; test: cell-based or functional assay; remark: listed apart in the source
[9] = biological target: T2, hCD73-his; test: SEC-MALS, target:mAb 1:1, 4 uM + 4 uM
Protocol: as §1, §3

[10] = biological target: T4, purified human-CD40 monomer (human, UniProt P25942 21-193, limits assumed); test: SPR, dAb-Fc on protein A, hCD40monomer analyte; second set
T4 construct: Soluble analyte; also called hCD40monomer

[11] = biological target: T5, hCD40-Fc (human, UniProt P25942 21-193); test: SPR, hCD40-Fc immobilized, dAb-Fc analyte, avidity
T5 construct: Immobilized on the sensor chip; not shown: Fc part of hCD40-Fc not described
T5 sequence (P25942 21-193): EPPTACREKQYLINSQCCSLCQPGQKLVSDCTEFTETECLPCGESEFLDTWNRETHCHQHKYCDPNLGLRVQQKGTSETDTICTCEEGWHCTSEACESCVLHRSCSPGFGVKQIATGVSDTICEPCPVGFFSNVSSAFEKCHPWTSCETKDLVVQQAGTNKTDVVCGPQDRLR

T4 sequence (P25942 21-193 limits assumed): as the sequence (P25942 21-193) above

Row | Binder | Rh [1] [nm] | Kd [2] | koff [2] | kon [2] | MW Peak 1 [3] [kDa] | MW Peak 2 [3] [kDa] | MW Peak 1 [4] [kDa] | Rh [5] [nm] | Rh [6] [nm] | internalization EC50, Calu6 cells, 2 h [7] [nM] | internalization Ymax (% of 100 nM 11F11), Calu6 cells [7] [%] | % internalization, Calu6 cells [8] [%] | % internalization, H228 cells [8] [%] | % internalization, H2030 cells [8] [%] | % internalization, HCC15 cells [8] [%] | internalization T1/2, Calu6 cells [8] [min] | internalization T1/2, H228 cells [8] [min] | internalization T1/2, H2030 cells [8] [min] | internalization T1/2, HCC15 cells [8] [min] | MW Peak 2 [9] [kDa] | also measured
1 | B1 | 6.5 | 6.2 nM and 8.3 nM | 0.0014 s⁻¹ and 0.0018 s⁻¹ | 220000 M⁻¹ s⁻¹ | 2200 | 310 | 210 | 2.9 | 23.9 | 0.67 | 99 | 91 | 93 | 85 | 91 | 3 | 9.7 | 3.3 | 2.6 | 3400 | MW Peak 2 [4]: 150 kDa
2 | B2 |  | 5.7 nM and 6.8 nM | 0.0014 s⁻¹ and 0.0016 s⁻¹ | 240000 M⁻¹ s⁻¹ and 230000 M⁻¹ s⁻¹ | 2000 | 320 |  |  | 25.6 | 0.87 | 99 | 91 | 92 | 87 | 91 | 3.1 | 9.4 | 4.3 | 3 |  | MW Peak 3 [3]: 390 kDa
3 | B3 | 5.8 |  |  |  |  |  | 170 | 10.8 |  |  |  |  | -47 |  |  |  |  |  |  | 530 | 
4 | B4 |  |  |  |  |  |  |  |  |  |  |  |  |  |  |  |  |  |  |  |  | Kd [10]: 9.8 nM; koff [10]: 0.00011 s⁻¹; kon [10]: 11000 M⁻¹ s⁻¹; KDapparent [11]: < 1 nM
5 | B5 |  |  |  |  |  |  |  |  |  |  |  |  |  |  |  |  |  |  |  |  | KDapparent [11]: < 1 nM
